# From paper PMC10786891, “Massively parallel profiling of RNA-targeting CRISPR-Cas13d”
# T1: EsCas13d, nuclease-dead (Eubacterium siraeum, UniProt B0MS50, R295A;H300A;R849A;H854A)
# T1 sequence: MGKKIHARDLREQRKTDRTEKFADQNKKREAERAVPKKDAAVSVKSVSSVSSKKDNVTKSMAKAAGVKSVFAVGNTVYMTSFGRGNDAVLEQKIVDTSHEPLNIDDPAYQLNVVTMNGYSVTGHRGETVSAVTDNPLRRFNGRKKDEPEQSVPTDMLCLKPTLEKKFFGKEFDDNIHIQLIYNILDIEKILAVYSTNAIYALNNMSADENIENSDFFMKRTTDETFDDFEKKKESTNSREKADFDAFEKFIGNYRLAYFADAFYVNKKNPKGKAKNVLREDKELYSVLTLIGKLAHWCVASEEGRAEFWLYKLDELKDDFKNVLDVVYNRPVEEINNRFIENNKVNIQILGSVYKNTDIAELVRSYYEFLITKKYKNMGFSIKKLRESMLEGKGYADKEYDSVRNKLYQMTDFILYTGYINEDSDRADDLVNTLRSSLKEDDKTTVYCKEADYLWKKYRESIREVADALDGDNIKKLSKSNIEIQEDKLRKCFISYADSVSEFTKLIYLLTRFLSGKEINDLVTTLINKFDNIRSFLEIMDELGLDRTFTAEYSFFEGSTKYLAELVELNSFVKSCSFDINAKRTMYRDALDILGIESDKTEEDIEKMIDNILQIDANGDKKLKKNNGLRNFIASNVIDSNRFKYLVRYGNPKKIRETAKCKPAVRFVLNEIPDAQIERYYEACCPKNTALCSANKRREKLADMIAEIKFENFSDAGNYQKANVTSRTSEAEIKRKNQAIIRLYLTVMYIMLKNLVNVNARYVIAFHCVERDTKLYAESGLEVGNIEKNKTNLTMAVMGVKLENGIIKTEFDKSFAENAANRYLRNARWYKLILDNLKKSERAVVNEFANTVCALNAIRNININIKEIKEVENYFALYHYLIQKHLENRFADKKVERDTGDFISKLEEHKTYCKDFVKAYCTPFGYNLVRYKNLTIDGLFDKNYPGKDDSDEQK
# B1: target 1 insG 3' of 22,insG 3' of 9 (mixed)
# RNA 1: CACCCGUGCAAAAAUGCAGGGGUCUAAAACUGAGCGGAUAACCUCUCUAUGG
# RNA 2: GGGAAUGGAUCCACAUCUACGAAUUCGUACGCAUAGAGAGGUUAGUCCGCUCACCGAGAUCGGAAGAGCACACGU
# B2: target 1 G12C,G13A (mixed)
# RNA 1: CACCCGUGCAAAAAUGCAGGGGUCUAAAACUGAGCGGAUAACCUCUCUAUGG
# RNA 2: GGGAAUGGAUCCACAUCUACGAAUUCGUACCAUAGAGAACUUAUCCGCUCACCGAGAUCGGAAGAGCACACGU
# B3: target 1 C4U,U10G (mixed)
# RNA 1: CACCCGUGCAAAAAUGCAGGGGUCUAAAACUGAGCGGAUAACCUCUCUAUGG
# RNA 2: GGGAAUGGAUCCACAUCUACGAAUUCGUACCAUAGAGAGGUGAUCCGUUCACCGAGAUCGGAAGAGCACACGU
# B4: target 1 U10A,G17A (mixed)
# RNA 1: CACCCGUGCAAAAAUGCAGGGGUCUAAAACUGAGCGGAUAACCUCUCUAUGG
# RNA 2: GGGAAUGGAUCCACAUCUACGAAUUCGUACCAUAAAGAGGUAAUCCGCUCACCGAGAUCGGAAGAGCACACGU
# B5: target 1 A1C,G13C (mixed)
# RNA 1: CACCCGUGCAAAAAUGCAGGGGUCUAAAACUGAGCGGAUAACCUCUCUAUGG
# RNA 2: GGGAAUGGAUCCACAUCUACGAAUUCGUACCAUAGAGACGUUAUCCGCUCCCCGAGAUCGGAAGAGCACACGU
# B6: target 1 insG 3' of 3,insC 3' of 3 (mixed)
# RNA 1: CACCCGUGCAAAAAUGCAGGGGUCUAAAACUGAGCGGAUAACCUCUCUAUGG
# RNA 2: GGGAAUGGAUCCACAUCUACGAAUUCGUACCAUAGAGAGGUUAUCCGCUGCCACCGAGAUCGGAAGAGCACACGU
# B7: target 1 insG 3' of 20,insG 3' of 20 (mixed)
# RNA 1: CACCCGUGCAAAAAUGCAGGGGUCUAAAACUGAGCGGAUAACCUCUCUAUGG
# RNA 2: GGGAAUGGAUCCACAUCUACGAAUUCGUACCAGGUAGAGAGGUUAUCCGCUCACCGAGAUCGGAAGAGCACACGU
# B8: target 1 U19C,A20C (mixed)
# RNA 1: CACCCGUGCAAAAAUGCAGGGGUCUAAAACUGAGCGGAUAACCUCUCUAUGG
# RNA 2: GGGAAUGGAUCCACAUCUACGAAUUCGUACCCCAGAGAGGUUAUCCGCUCACCGAGAUCGGAAGAGCACACGU
# B9: target 1 insU 3' of 18,insG 3' of 3 (mixed)
# RNA 1: CACCCGUGCAAAAAUGCAGGGGUCUAAAACUGAGCGGAUAACCUCUCUAUGG
# RNA 2: GGGAAUGGAUCCACAUCUACGAAUUCGUACCAUAUGAGAGGUUAUCCGCUGCACCGAGAUCGGAAGAGCACACGU
# B10: target 1 U11C,G12C (mixed)
# RNA 1: CACCCGUGCAAAAAUGCAGGGGUCUAAAACUGAGCGGAUAACCUCUCUAUGG
# RNA 2: GGGAAUGGAUCCACAUCUACGAAUUCGUACCAUAGAGAGCCUAUCCGCUCACCGAGAUCGGAAGAGCACACGU
# B11: target 1 insG 3' of 19,insA 3' of 13 (mixed)
# RNA 1: CACCCGUGCAAAAAUGCAGGGGUCUAAAACUGAGCGGAUAACCUCUCUAUGG
# RNA 2: GGGAAUGGAUCCACAUCUACGAAUUCGUACCAUGAGAGAGAGUUAUCCGCUCACCGAGAUCGGAAGAGCACACGU
# B12: target 1 C2G,C6A (mixed)
# RNA 1: CACCCGUGCAAAAAUGCAGGGGUCUAAAACUGAGCGGAUAACCUCUCUAUGG
# RNA 2: GGGAAUGGAUCCACAUCUACGAAUUCGUACCAUAGAGAGGUUAUCAGCUGACCGAGAUCGGAAGAGCACACGU
# B13: target 1 G13C (mixed)
# RNA 1: CACCCGUGCAAAAAUGCAGGGGUCUAAAACUGAGCGGAUAACCUCUCUAUGG
# RNA 2: GGGAAUGGAUCCACAUCUACGAAUUCGUACCAUAGAGACGUUAUCCGCUCACCGAGAUCGGAAGAGCACACGU
# B14: target 1 insC 3' of 9,insC 3' of 8 (mixed)
# RNA 1: CACCCGUGCAAAAAUGCAGGGGUCUAAAACUGAGCGGAUAACCUCUCUAUGG
# RNA 2: GGGAAUGGAUCCACAUCUACGAAUUCGUACCAUAGAGAGGUUACUCCCGCUCACCGAGAUCGGAAGAGCACACGU
# B15: target 1 A1U,C22U (mixed)
# RNA 1: CACCCGUGCAAAAAUGCAGGGGUCUAAAACUGAGCGGAUAACCUCUCUAUGG
# RNA 2: GGGAAUGGAUCCACAUCUACGAAUUCGUAUCAUAGAGAGGUUAUCCGCUCUCCGAGAUCGGAAGAGCACACGU
# B16: target 1 insU 3' of 12,insG 3' of 7 (mixed)
# RNA 1: CACCCGUGCAAAAAUGCAGGGGUCUAAAACUGAGCGGAUAACCUCUCUAUGG
# RNA 2: GGGAAUGGAUCCACAUCUACGAAUUCGUACCAUAGAGAGGUUUAUCGCGCUCACCGAGAUCGGAAGAGCACACGU
# B17: target 1 insG 3' of 21,insG 3' of 9 (mixed)
# RNA 1: CACCCGUGCAAAAAUGCAGGGGUCUAAAACUGAGCGGAUAACCUCUCUAUGG
# RNA 2: GGGAAUGGAUCCACAUCUACGAAUUCGUACCGAUAGAGAGGUUAGUCCGCUCACCGAGAUCGGAAGAGCACACGU
# B18: target 1 U11A,G17A (mixed)
# RNA 1: CACCCGUGCAAAAAUGCAGGGGUCUAAAACUGAGCGGAUAACCUCUCUAUGG
# RNA 2: GGGAAUGGAUCCACAUCUACGAAUUCGUACCAUAAAGAGGAUAUCCGCUCACCGAGAUCGGAAGAGCACACGU
# B19: target 1 C7A,G13A (mixed)
# RNA 1: CACCCGUGCAAAAAUGCAGGGGUCUAAAACUGAGCGGAUAACCUCUCUAUGG
# RNA 2: GGGAAUGGAUCCACAUCUACGAAUUCGUACCAUAGAGAAGUUAUACGCUCACCGAGAUCGGAAGAGCACACGU
# B20: target 1 A1U,U11C (mixed)
# RNA 1: CACCCGUGCAAAAAUGCAGGGGUCUAAAACUGAGCGGAUAACCUCUCUAUGG
# RNA 2: GGGAAUGGAUCCACAUCUACGAAUUCGUACCAUAGAGAGGCUAUCCGCUCUCCGAGAUCGGAAGAGCACACGU
# B21: target 1 A9G,C22G (mixed)
# RNA 1: CACCCGUGCAAAAAUGCAGGGGUCUAAAACUGAGCGGAUAACCUCUCUAUGG
# RNA 2: GGGAAUGGAUCCACAUCUACGAAUUCGUAGCAUAGAGAGGUUGUCCGCUCACCGAGAUCGGAAGAGCACACGU
# B22: target 1 insU 3' of 21,insG 3' of 19 (mixed)
# RNA 1: CACCCGUGCAAAAAUGCAGGGGUCUAAAACUGAGCGGAUAACCUCUCUAUGG
# RNA 2: GGGAAUGGAUCCACAUCUACGAAUUCGUACCUAUGAGAGAGGUUAUCCGCUCACCGAGAUCGGAAGAGCACACGU
# B23: target 1 insG 3' of 10,insU 3' of 5 (mixed)
# RNA 1: CACCCGUGCAAAAAUGCAGGGGUCUAAAACUGAGCGGAUAACCUCUCUAUGG
# RNA 2: GGGAAUGGAUCCACAUCUACGAAUUCGUACCAUAGAGAGGUUGAUCCGUCUCACCGAGAUCGGAAGAGCACACGU
# B24: target 1 C7A,C22U (mixed)
# RNA 1: CACCCGUGCAAAAAUGCAGGGGUCUAAAACUGAGCGGAUAACCUCUCUAUGG
# RNA 2: GGGAAUGGAUCCACAUCUACGAAUUCGUAUCAUAGAGAGGUUAUACGCUCACCGAGAUCGGAAGAGCACACGU
# B25: target 1 insU 3' of 15 (mixed)
# RNA 1: CACCCGUGCAAAAAUGCAGGGGUCUAAAACUGAGCGGAUAACCUCUCUAUGG
# RNA 2: GGGAAUGGAUCCACAUCUACGAAUUCGUACCAUAGAGUAGGUUAUCCGCUCACCGAGAUCGGAAGAGCACACGU
# B26: target 1 insG 3' of 16,insA 3' of 3 (mixed)
# RNA 1: CACCCGUGCAAAAAUGCAGGGGUCUAAAACUGAGCGGAUAACCUCUCUAUGG
# RNA 2: GGGAAUGGAUCCACAUCUACGAAUUCGUACCAUAGAGGAGGUUAUCCGCUACACCGAGAUCGGAAGAGCACACGU
# B27: target 1 G12A,U19C (mixed)
# RNA 1: CACCCGUGCAAAAAUGCAGGGGUCUAAAACUGAGCGGAUAACCUCUCUAUGG
# RNA 2: GGGAAUGGAUCCACAUCUACGAAUUCGUACCACAGAGAGAUUAUCCGCUCACCGAGAUCGGAAGAGCACACGU
# B28: target 1 insC 3' of 19,insU 3' of 2 (mixed)
# RNA 1: CACCCGUGCAAAAAUGCAGGGGUCUAAAACUGAGCGGAUAACCUCUCUAUGG
# RNA 2: GGGAAUGGAUCCACAUCUACGAAUUCGUACCAUCAGAGAGGUUAUCCGCUCUACCGAGAUCGGAAGAGCACACGU
# Target: T1, EsCas13d, nuclease-dead
# Assay: crRNA (strand 1, pre-loaded); Mg2+; 40 mM Tris-HCl pH 7.5, 150 mM NaCl, 6 mM MgCl2, 1 mM DTT, 0.1% Tween-20, 0.2 mg/ml BSA; 25 C; 10 min per concentration, then washed
# Settings: tags: His6-TwinStrep-SUMO cleaved; N-terminal SNAP kept (SNAP-Surface 488); label: 3' end held by stalled T7 RNA polymerase
row,Binder,Kd [nM]
1,B1,28.2 ± 1.8
2,B2,9.5 ± 0.5
3,B3,18.5 ± 1.9
4,B4,55 ± 5
5,B5,47 ± 11
6,B6,11.4 ± 0.4
7,B7,60 ± 20
8,B8,94 ± 29
9,B9,17.7 ± 0.6
10,B10,17.1 ± 2.1
11,B11,47 ± 10
12,B12,4.49 ± 0.17
13,B13,62 ± 16
14,B14,19.9 ± 1.4
15,B15,17 ± 2.6
16,B16,6.8 ± 0.4
17,B17,70 ± 17
18,B18,91 ± 13
19,B19,10.8 ± 0.7
20,B20,9.3 ± 1
21,B21,58 ± 18
22,B22,73 ± 9
23,B23,43 ± 11
24,B24,13.8 ± 1.1
25,B25,8.7 ± 0.6
26,B26,17.7 ± 1.2
27,B27,22 ± 3
28,B28,32.7 ± 2.9
